Measurements published in patent publication US20170173114A1, “METHODS AND COMPOSITIONS FOR INDUCTION OF UCP1 EXPRESSION” (Joslin Diabetes Center, Inc., priority 2014, published 2017).
Entries after “also recorded” stand apart in the source; their conditions may differ.

Tests used:
UCP1 [1] = assay: UCP1 mRNA expression in C2C12 myogenic progenitors; assay type: cell-based; conditions: three days
UCP1 and PTGS2 = UCP1 and PTGS2 mRNA in WT-1 cells undergoing adipocyte differentiation; assay type: cell-based, murine; conditions: after induction media; 200 ng/mL FGF or 3.3 nM BMP7, 2 days
Procedure: In a separate experiment investigating the ability of FGF proteins to induce UCP1 expression in cells undergoing adipocyte differentiation, WT-1 preadipocyte cells were differentiated by culturing in growth media supplemented with insulin (20 nM) and triiodothyronine (T3, 1 nM) for 3 days, followed by incubation in an induction media (growth medium supplemented 20 nM insulin, 1 nM T3, 0.5 mM isobutyl-methylxanthine, 5 μM dexamethasone) for 2 days. The cell were then exposed to BMP7 (3.3 nM) or 200 ng/mL of FGF2, FGF6 or, FGF9 in growth media supplemented with insulin (20 nM) and triodothyronine (T3, 1 nM) for 2 additional days. Cells were harvested and UCP1 and PTGS2 mRNA expression levels were determined according to the quantitative RT-PCR assay described above. Experiments were performed in triplicate and the data presented as mean+/−SEM.

mature brown adipocytes = assay: Glucose uptake in mature brown adipocytes; assay type: cell-based; conditions: vs control
Procedure: The following glucose uptake assay was used to determine whether FGF6 could impact cellular glucose uptake. Specifically, glucose uptake was monitored in WT-1 brown preadipocytes and 3T3-F442A white preadipocytes in the presence or absence of FGF6. After serum starvation in DMEM/H medium containing 1% of BSA for 2-3 h, cells were washed with HEPES buffer and then incubated with or without 100 nM insulin for 30 min in DMEM/H medium containing 1% of BSA. Glucose transport was determined by the addition of 2-deoxy-[3H]glucose (0.1 mM, 0.5 μCi/mL; PerkinElmer Life and Analytical Science, Waltham, Mass.). […] Cells were then lysed in 0.1% SDS, and glucose uptake was assessed in 4 mL of scintillant using Beckman LS6500 scintillation counter (Beckman Coulter, Indianapolis Ind.). Nonspecific 2-deoxy-[3H]glucose uptake was measured in the presence of cytochalasin B (20 μM) and was subtracted from the total uptake to get specific glucose uptake. Results were expressed as the mean±s.e.m. of the indicated number of experiments. The protein content was determined by the Bradford method.
To assess mitochondrial respiration, a Seahorse Extracellular Flux Analyzer (Seahorse Bioscience Inc., North Billerica, Mass.) was used to quantify oxygen consumption rates (OCR) of differentiated human brown adipocytes. […] After adipogenic induction for 8 days, OCR was analyzed. […]

UCP1 [2] = assay: UCP1 mRNA expression in SVF cells from subcutaneous white adipose tissue (SQ-SVF); assay type: cell-based, C57BL/6 mice; conditions: growth media, 3 days; vs control
Procedure: Eight 6-week old C57BL/6 male mice were sacrificed. Interscapular BAT and axillary subcutaneous WAT were removed, minced and digested with 1 mg/ml collagenase for 45 minutes at 37° C. in DMEM/F12 media, containing 1% BSA and antibiotics. Digested tissues were filtered through sterile 150 μm nylon mesh and centrifuged at 250×g for 5 minutes. The floating fractions consisting of adipocytes were discarded and the pellets representing the SVF were then resuspended in erythrocyte lysis buffer (154 mM NH4Cl, 10 mM KHCO3, 0.1 mM EDTA) for 10 minutes to remove red blood cells. The cells were further centrifuged at 500×g for 5 minutes, plated at 8×10^5 cells/well of a 24-well plate and grown at 37° C. in DMEM/F12 supplemented with 10% FBS at 37° C.
To determine if FGF6 treatment of primary adipose progenitors could also increase UCP1 expression as observed in Example 1, stromo-vascular fraction (SVF) cells, which comprise adipocyte progenitors, were isolated from interscapular brown adipose tissue (BAT-SVF) and subcutaneous white adipose tissue (SQ-SVF). SVF cells were subsequently treated with FGF6 or FGF21 in growth media (DMEM+10% FBS) for 3 days, followed by determination of UCP1 expression. As described in FIGS. 9A and 9B, FGF21 treatment had little effect on UCP1 mRNA expression in either type of SVF cells, as compared to the control. […]

RIP140 (NRIP1) = assay: RIP140 mRNA expression in brown and white preadipocytes; assay type: cell-based; conditions: 200 ng/mL, three or seven days
Procedure: Total RNA was isolated with QIAzol lysis reagent (Qiagen, Valencia, Calif.) and purified by RNeasy Mini columns (Qiagen) following the manufacture's instructions. cDNA was prepared from total RNA using the Advantage RT-PCR kit (BD Biosciences, Palo Alto, Calif.) according to manufacturer's instructions. Diluted cDNA was used in a PCR reaction with SYBR Green Master Mix (Applied Biosystems, Foster City, Calif.) and primers specifically designed for detection of the gene of interest. PCR reactions were run in duplicate for each sample and quantitated in the ABI Sequence Detection System (Applied Biosystems). Data were expressed as arbitrary units after normalization to levels of expression of internal controls for each sample. Sequences of primers for specific genes are each obtained from the published literature or designed using publically available gene sequence databases. Unless otherwise indicated, gene expression data described in the examples below was obtained using QPCR.
RIP140 directs DNA methylation and interacts with nuclear receptors to silence UCP1 expression and suppress mitochondrial biogenesis in white adipocytes (Kiskinis E. et al., EMBO J. 26:4831-4840, 2007; Powelka A. M. et al., J. Clin. Invest. 116:125-136, 2006; Wang H. et al., Mol. Cell. Biol. 28:2187-2200, 2008). […]

B1: FGF6: fibroblast growth factor 6; recombinant human FGF from R&D Systems, or mouse FGF6 cDNA overexpressed by lentiviral vector (protein)
chain: KRQRRLYCNVGIGFHLQVLPDGRISGTHEENPYSLLEISTVERGVVSLFGVRSALFVAMNSKGRLYATPSFQEECKFRETLLPNNYNAYESDLYQGTYIALSKYGRVKRGSKVSPIMTVTHFLPRI
UCP1 mRNA expression in C2C12 myogenic progenitors (UCP1 [1]): neither FGF6 nor FGF21 induced UCP1 mRNA expression; also recorded: no induction of UCP1
PTGS2 mRNA expression in cells undergoing adipocyte differentiation (UCP1 and PTGS2): able to induce
UCP1 mRNA expression in cells undergoing adipocyte differentiation (UCP1 and PTGS2): able to induce
glucose uptake in mature brown adipocytes (mature brown adipocytes): enhanced
increase in UCP1 mRNA expression in SVF from subcutaneous WAT (UCP1 [2]): ~200 fold
reduction of RIP140 mRNA expression (RIP140 (NRIP1)): 50-80%
